Assay results reported in patent US20140274874A1 (Amgen, published 2014).
Where a chain is given by its changes, count along the chain named. Numbers in names are those of the source.

T1: MMP2 (human pro-MMP2 activated with APMA) (human, UniProt P08253 30-660)
T1 sequence (looked up): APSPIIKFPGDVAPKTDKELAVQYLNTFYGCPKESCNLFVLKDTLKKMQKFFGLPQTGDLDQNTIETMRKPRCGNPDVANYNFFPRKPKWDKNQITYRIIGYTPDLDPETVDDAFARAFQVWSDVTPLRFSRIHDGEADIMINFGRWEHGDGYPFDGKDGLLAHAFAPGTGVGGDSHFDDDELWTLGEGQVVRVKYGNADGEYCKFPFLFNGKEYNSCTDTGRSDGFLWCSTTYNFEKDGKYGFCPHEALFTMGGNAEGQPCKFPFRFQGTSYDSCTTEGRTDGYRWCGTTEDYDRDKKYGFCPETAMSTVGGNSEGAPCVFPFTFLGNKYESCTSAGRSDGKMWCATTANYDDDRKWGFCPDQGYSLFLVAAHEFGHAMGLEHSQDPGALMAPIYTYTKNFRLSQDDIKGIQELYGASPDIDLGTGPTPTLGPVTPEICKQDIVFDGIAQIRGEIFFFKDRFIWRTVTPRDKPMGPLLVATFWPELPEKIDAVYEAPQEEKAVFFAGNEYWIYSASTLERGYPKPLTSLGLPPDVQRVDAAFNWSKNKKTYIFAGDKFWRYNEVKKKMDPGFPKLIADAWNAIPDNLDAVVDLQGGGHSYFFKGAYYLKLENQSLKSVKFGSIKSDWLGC

B1: wild-type TIMP-3 (native human tissue inhibitor of metalloproteinase 3) (other)
chain: CTCSPSHPQDAFCNSDIVIRAKVVGKKLVKEGPFGTLVYTIKQMKMYRGFTKMPHVQYIHTEASESLCGLKLEVNKYQYLLTGRVYDGKMYTGLCNFVERWDQLTLSQRKGLNYRYHLGCNCKIKSCYYLPCFVTSKNECLWTDMLSNFGYPGYQSKHYACIRQKGGYCSWYRGWAPPDKSIINATDP
B2: TIMP-3 mutein F57N (other)
chain: B1 chain with F34N
B3: TIMP-3 mutein P56N, G58T (other)
chain: B1 chain with P33N, G35T
B4: TIMP-3 mutein K45S, F57N (other)
chain: B1 chain with K22S, F34N
B5: TIMP-3 mutein T63N, K65T (other)
chain: B1 chain with T40N, K42T

These binders were tested against T1, MMP2 (human pro-MMP2 activated with …) (assay: cell-based or functional assay).

| MMP2 IC50 | Binder |
| --- | --- |
| 0.6 nM | B1 |
| 0.5 nM | B2 |
| 1 nM | B3 |
| 0.3 nM | B4 |
| 0.8 nM | B5 |

Each binder was assayed against catalytic domain of human MMP9 (human, UniProt P14780 107-444, limits assumed) (assay: cell-based or functional assay).
catalytic domain of human MMP9, sequence (P14780 107-444 limits assumed): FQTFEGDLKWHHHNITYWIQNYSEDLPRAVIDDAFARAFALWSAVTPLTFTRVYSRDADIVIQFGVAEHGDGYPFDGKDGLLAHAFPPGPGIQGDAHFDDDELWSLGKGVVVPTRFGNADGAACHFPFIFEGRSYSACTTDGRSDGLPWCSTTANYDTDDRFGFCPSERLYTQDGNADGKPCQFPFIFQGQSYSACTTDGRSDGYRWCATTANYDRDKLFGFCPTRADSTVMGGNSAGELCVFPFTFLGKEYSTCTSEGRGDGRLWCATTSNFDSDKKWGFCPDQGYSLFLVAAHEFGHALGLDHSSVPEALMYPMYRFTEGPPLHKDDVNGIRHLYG

| MMP9 IC50 | Binder |
| --- | --- |
| 1 nM | B1 |
| 4.6 nM | B2 |
| 2.3 nM | B3 |
| 4 nM | B4 |
| 0.5 nM | B5 |

Each binder was assayed against MMP13 (active MMP13, or pro-MMP-13 activated with APMA) (UniProt P45452 20-471, limits assumed) (assay: cell-based or functional assay).

| MMP13 IC50 | Binder |
| --- | --- |
| 0.9 nM | B1 |
| 0.5 nM | B2 |
| 3.1 nM | B3 |
| 2.2 nM | B5 |
